In patent US8729232:

Tested on: T1, biotinylated 13-mer peptide LCTPSKGSLFTGR (native Mtb motif with arginine to lysine substitution at position 6)
T1 sequence: LCTPSKGSLFTGR

Mycobacterium tuberculosis formylglycine generating enzyme (Mtb FGE, Rv0712), recombinant
FGly conversion detected by MALDI-TOF: A peak indicating the FGly-modified species appeared
